Laboratory results taken from paper PMC2116009 (The Journal of Cell Biology, 1990).

Biological target: chicken transferrin receptor, endogenous on chicken embryo fibroblasts (chicken (endogenous in CEF), UniProt Q90997 1-776)
Test: radioligand binding

Chain of chicken transferrin receptor, endogenous on chicken embryo fibroblasts (Q90997 whole entry): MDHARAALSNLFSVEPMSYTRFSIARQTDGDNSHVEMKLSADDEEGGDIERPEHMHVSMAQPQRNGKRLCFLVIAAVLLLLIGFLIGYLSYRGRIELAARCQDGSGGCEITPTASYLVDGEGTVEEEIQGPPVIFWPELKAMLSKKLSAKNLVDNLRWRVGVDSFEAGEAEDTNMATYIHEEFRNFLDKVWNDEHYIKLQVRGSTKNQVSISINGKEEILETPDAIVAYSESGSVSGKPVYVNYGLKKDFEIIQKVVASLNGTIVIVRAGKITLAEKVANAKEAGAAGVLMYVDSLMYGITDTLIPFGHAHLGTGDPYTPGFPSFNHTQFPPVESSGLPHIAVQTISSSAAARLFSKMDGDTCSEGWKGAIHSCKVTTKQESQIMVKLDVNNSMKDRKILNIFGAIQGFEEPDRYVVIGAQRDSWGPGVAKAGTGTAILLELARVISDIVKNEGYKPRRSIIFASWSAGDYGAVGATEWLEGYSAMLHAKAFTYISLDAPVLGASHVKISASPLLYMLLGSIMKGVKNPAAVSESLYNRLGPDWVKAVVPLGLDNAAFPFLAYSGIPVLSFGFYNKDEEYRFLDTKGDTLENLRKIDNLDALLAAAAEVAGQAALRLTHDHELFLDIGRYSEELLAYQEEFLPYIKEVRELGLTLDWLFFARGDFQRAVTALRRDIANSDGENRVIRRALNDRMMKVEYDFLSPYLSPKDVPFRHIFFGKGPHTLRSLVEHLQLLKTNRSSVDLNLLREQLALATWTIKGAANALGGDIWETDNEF

B1: ovotransferrin (ligand)
chain: APPKSVIRWCTISSPEEKKCNNLRDLTQQERISLTCVQKATYLDCIKAIANNEADAISLDGGQAFEAGLAPYKLKPIAAEVYEHTEGSTTSYYAVAVVKKGTEFTVNDLQGKTSCHTGLGRSAGWNIPIGTLLHRGAIEWEGIESGSVEQAVAKFFSASCVPGATIEQKLCRQCKGDPKTKCARNAPYSGYSGAFHCLKDGKGDVAFVKHTTVNENAPDQKDEYELLCLDGSRQPVDNYKTCNWARVAAHAVVARDDNKVEDIWSFLSKAQSDFGVDTKSDFHLFGPPGKKDPVLKDLLFKDSAIMLKRVPSLMDSQLYLGFEYYSAIQSMRKDQLTPSPRENRIQWCAVGKDEKSKCDRWSVVSNGDVECTVVDETKDCIIKIMKGEADAVALDGGLVYTAGVCGLVPVMAERYDDESQCSKTDERPASYFAVAVARKDSNVNWNNLKGKKSCHTAVGRTAGWVIPMGLIHNRTGTCNFDEYFSEGCAPGSPPNSRLCQLCQGSGGIPPEKCVASSHEKYFGYTGALRCLVEKGDVAFIQHSTVEENTGGKNKADWAKNLQMDDFELLCTDGRRANVMDYRECNLAEVPTHAVVVRPEKANKIRDLLERQEKRFGVNGSEKSKFMMFESQNKDLLFKDLTKCLFKVREGTTYKEFLGDKFYTVISSLKTCNPSDILQMCSFLEGK
Kd: ~100 nM
